Test results as given in the Immune Epitope Database (IEDB).

How the values were obtained:
Assay in all cases: IEDB peptide-MHC binding, purified MHC/competitive/radioactivity; filed as Kd, often an IC50 or EC50 that approximates it; ≥ and ≤ were set here for values at or beyond the usual limits of such assays
Conditions in all cases: source organism: Severe acute respiratory syndrome coronavirus 2
HLA-B*15:01 = molecular target: HLA-B*15:01
HLA-B*18:01 = molecular target: HLA-B*18:01
HLA-B*44:02 = molecular target: HLA-B*44:02
HLA-B*44:03 = molecular target: HLA-B*44:03
HLA-B*51:01 = molecular target: HLA-B*51:01
HLA-A*26:01 = molecular target: HLA-A*26:01
HLA-A*02:01 = molecular target: HLA-A*02:01
HLA-B*07:02 = molecular target: HLA-B*07:02
HLA-A*01:01 = molecular target: HLA-A*01:01

With HADQLTPTW the Kd (HLA-B*15:01) was 13400 nM, the Kd (HLA-B*18:01) was 3350 nM and the Kd (HLA-B*44:02) was 5260 nM. It also gave a Kd (HLA-B*44:03) of 1800 nM.
FGDDTVIEV was tested, and the Kd (HLA-B*15:01) was 2380 nM and the Kd (HLA-B*51:01) was ≥ 45700 nM.
NATNVVIKV was tested, and the Kd (HLA-A*26:01) was ≥ 43400 nM, the Kd (HLA-B*44:03) was 8110 nM and the Kd (HLA-B*51:01) was 536 nM.
Work on KNIDGYFKIY yielded a Kd (HLA-A*02:01) of 11800 nM and a Kd (HLA-B*15:01) of 1450 nM.
In the case of APHGHVMVEL, the Kd (HLA-B*07:02) is reported as 6.1 nM.
With KRVDWTIEY the Kd (HLA-B*15:01) was 356 nM and the Kd (HLA-B*51:01) was ≥ 22700 nM.
For VGYLQPRTF, the Kd (HLA-B*15:01) was 777 nM and the Kd (HLA-B*18:01) was 707 nM.
ELPDEFVVV showed a Kd (HLA-A*02:01) of 460 nM and a Kd (HLA-A*26:01) of 6860 nM.
In the case of STSAFVETV, the Kd (HLA-A*01:01) is reported as 12700 nM, the Kd (HLA-A*02:01) is reported as 26 nM and the Kd (HLA-A*26:01) is reported as 12100 nM. The Kd (HLA-B*07:02) was 8860 nM and the Kd (HLA-B*15:01) was 10400 nM.
SLEDKAFQL showed a Kd (HLA-A*02:01) of 20 nM and a Kd (HLA-B*15:01) of 1580 nM.
FASEAARVV showed a Kd (HLA-A*02:01) of 495 nM, a Kd (HLA-A*26:01) of 734 nM and a Kd (HLA-B*07:02) of 8550 nM. For the same sequence, the Kd (HLA-B*15:01) was 2550 nM, the Kd (HLA-B*18:01) was ≥ 49500 nM and the Kd (HLA-B*51:01) was 207 nM.
Sequence APRITFGGP has a Kd (HLA-A*02:01) of 893 nM and a Kd (HLA-B*07:02) of 59 nM.
ELPDEFVVVTV was tested, and the Kd (HLA-A*02:01) was 1.6 nM, the Kd (HLA-A*26:01) was 72 nM and the Kd (HLA-B*15:01) was ≥ 35100 nM. For the same sequence, the Kd (HLA-B*18:01) was 1130 nM.
With EIKESVQTF the Kd (HLA-A*26:01) was 7.8 nM, the Kd (HLA-B*15:01) was 4930 nM and the Kd (HLA-B*44:02) was ≥ 37200 nM.
For DEFVVVTV, the Kd (HLA-A*02:01) was 13000 nM, the Kd (HLA-A*26:01) was 9550 nM and the Kd (HLA-B*07:02) was ≥ 52800 nM. For the same sequence, the Kd (HLA-B*15:01) was 2050 nM, the Kd (HLA-B*18:01) was 0.5 nM and the Kd (HLA-B*44:02) was 2800 nM. For the same sequence, the Kd (HLA-B*44:03) was 1280 nM and the Kd (HLA-B*51:01) was 12800 nM.
LEDKAFQL gave a Kd (HLA-A*02:01) of 3890 nM, a Kd (HLA-B*15:01) of 14700 nM and a Kd (HLA-B*18:01) of 35 nM. The Kd (HLA-B*44:02) was ≥ 35400 nM and the Kd (HLA-B*44:03) was 208 nM.
VATSRTLSY was tested, and the Kd (HLA-A*01:01) was 18800 nM, the Kd (HLA-A*26:01) was 11800 nM and the Kd (HLA-B*15:01) was 267 nM.
Work on EEFEPSTQYEY yielded a Kd (HLA-A*26:01) of 18800 nM, a Kd (HLA-B*15:01) of 78 nM and a Kd (HLA-B*18:01) of 1.1 nM. The Kd (HLA-B*44:02) was 50 nM and the Kd (HLA-B*44:03) was 0.41 nM.
